Here are results for 21 molecules from US20240360227A1.

Where a chain is given by its changes, count along the chain named.

The labels stand for the following.
B1: VRDN-02065 (antibody, V domains shown)
VH: QVQLQESGPGLVKPSETLSLTCTVSGYSITGGYLWNWIRQPPGKGLEWIGYIHYDGTNNYKPSLKDRVTISRDTSKNQFSLKLSSVTAADTAVYYCARYGRVFFDYWGQGTLVTVSS
VL: DIVMTQSPLSLPVTPGEPASISCRSSQSIVHSNGNTYLQWYLQKPGQSPQLLIYKVSNRLYGVPDRFSGSGSGTDFTLKISRVEAEDVGVYYCFQGSHVHWTFGQGTKVEIK
B2: VRDN-02013 (antibody, V domains shown)
VH: B1 VH with I52H, H53S
VL: B1 VL with H100P
B3: VRDN-02074 (antibody, V domains shown)
VH: B1 VH with H53S, D55H, Y99H
VL: B1 VL with S26H, Q95H, H100P
B4: VRDN-02010 (antibody, V domains shown)
VH: B1 VH with W35H, H53S
VL: B1 VL with H100P
B5: VRDN-02011 (antibody, V domains shown)
VH: B1 VH with N36H, H53S
VL: B1 VL with H100P
B6: VRDN-02007 (antibody, V domains shown)
VH: B1 VH with G32H, H53S
VL: B1 VL with H100P
B7: VRDN-02076 (antibody, V domains shown)
VH: B1 VH with H53S, D55H, Y99H
VL: B1 VL with S26H, H100P, W101H
B8: VRDN-02067 (antibody, V domains shown)
VH: B1 VH with H53S, Y99H
VL: B1 VL
B9: VRDN-02015 (antibody, V domains shown)
VH: B1 VH with H53S, Y54H
VL: B1 VL with H100P
B10: VRDN-02070 (antibody, V domains shown)
VH: B1 VH with H53S, Y99H
VL: B1 VL with H100P, W101H
B11: VRDN-02071 (antibody, V domains shown)
VH: B1 VH with Y99H
VL: B1 VL with S26H, Q95H, H100P
B12: VRDN-02072 (antibody, V domains shown)
VH: B1 VH with Y99H
VL: B1 VL with S26H
B13: VRDN-02075 (antibody, V domains shown)
VH: B1 VH with H53S, D55H, Y99H
VL: B1 VL with S26H
B14: VRDN-02008 (antibody, V domains shown)
VH: B1 VH with Y33H, H53S
VL: B1 VL with H100P
B15: VRDN-02012 (antibody, V domains shown)
VH: B1 VH with Y51H, H53S
VL: B1 VL with H100P
B16: VRDN-02066 (antibody, V domains shown)
VH: B1 VH with H53S, D55H
VL: B1 VL
B17: VRDN-02014 (antibody, V domains shown)
VH: B1 VH
VL: B1 VL with H100P
B18: VRDN-02009 (antibody, V domains shown)
VH: B1 VH with L34H, H53S
VL: B1 VL with H100P
B19: VRDN-02069 (antibody, V domains shown)
VH: B1 VH with H53S, D55H
VL: B1 VL with H100P, W101H
B20: VRDN-02073 (antibody, V domains shown)
VH: B1 VH with Y99H
VL: B1 VL with S26H, H100P, W101H
B21: VRDN-02068 (antibody, V domains shown)
VH: B1 VH
VL: B1 VL with H100P, W101H

The first assay has as its target Recombinant human his-tagged IGF R extracellular domain protein (human) (UniProt P08069). Description: SPR, Ab captured via anti-huIgG Fc, pH 7.4.
One may read the Kd as the equilibrium constant for the complex coming apart. As usually defined, the koff is a measure of how fast the partners let go of each other. Broadly, the kon is a measure of how fast the partners come together. On to B1, for which the Kd was found to be 220 pM, the off-rate (koff) was found to be 2.54e-05 s⁻¹ and the on-rate (kon) turned out to be 116000 M⁻¹ s⁻¹.
With B2, the Kd is 674 pM, the off-rate (koff) is 5.45e-05 s⁻¹ and the kon is 80800 M⁻¹ s⁻¹.
The matching figures for B3: 301 pM, 3.98e-05 s⁻¹ and 132000 M⁻¹ s⁻¹.
As to B4, the equilibrium dissociation constant (Kd) came to 6950 pM, the koff came out at 0.00311 s⁻¹ and the on-rate constant (kon) was 447000 M⁻¹ s⁻¹.
Taken in the same sequence, the figures for B5 were 432 pM, 4.55e-05 s⁻¹ and 105000 M⁻¹ s⁻¹.
Consider B6, for which the Kd was determined as 12800 pM, the koff was found to be 0.000743 s⁻¹ and the kon is 58000 M⁻¹ s⁻¹.
The matching figures for B7: 210 pM, 2.46e-05 s⁻¹ and 117000 M⁻¹ s⁻¹.
Taken in the same sequence, the figures for B8 were 250 pM, 2.75e-05 s⁻¹ and 110000 M⁻¹ s⁻¹.
The matching figures for B9: 510 pM, 4.57e-05 s⁻¹ and 89500 M⁻¹ s⁻¹.
For the molecule B10, the equilibrium dissociation constant (Kd) was 322 pM, the koff came out at 3.38e-05 s⁻¹ and the association rate constant (kon) stood at 105000 M⁻¹ s⁻¹.
As for B11, the Kd turned out to be 103 pM, the koff was 1.09e-05 s⁻¹ and the kon turned out to be 105000 M⁻¹ s⁻¹.
The matching figures for B12: 281 pM, 3.57e-05 s⁻¹ and 127000 M⁻¹ s⁻¹.
Taken in the same sequence, the figures for B13 were 237 pM, 2.76e-05 s⁻¹ and 116000 M⁻¹ s⁻¹.
Taken in the same sequence, the figures for B14 were 16600 pM, 0.0206 s⁻¹ and 1.24e+06 M⁻¹ s⁻¹.
Regarding B15, the equilibrium dissociation constant (Kd) stood at 589 pM, the koff turned out to be 5.41e-05 s⁻¹ and the kon worked out at 91800 M⁻¹ s⁻¹.
The matching figures for B16: 278 pM, 3.12e-05 s⁻¹ and 112000 M⁻¹ s⁻¹.
The matching figures for B17: 697 pM, 6.19e-05 s⁻¹ and 88700 M⁻¹ s⁻¹.
Taken in the same sequence, the figures for B18 were 442 pM, 3.98e-05 s⁻¹ and 90000 M⁻¹ s⁻¹.
Take B19: the Kd was found to be 137 pM, the koff turned out to be 1.52e-05 s⁻¹ and the kon amounted to 111000 M⁻¹ s⁻¹.
As to B20, the Kd was 261 pM, the off-rate (koff) worked out at 3.13e-05 s⁻¹ and the kon was found to be 120000 M⁻¹ s⁻¹.
Taken in the same sequence, the figures for B21 were 249 pM, 2.87e-05 s⁻¹ and 115000 M⁻¹ s⁻¹.

For the next assay the target is unchanged. Description: SPR, Ab captured via anti-huIgG Fc, dissociation at pH 6. (Surface plasmon resonance follows binding to a sensor surface in real time, without labels.)
For the molecule B1, the Kd worked out at 232 pM, the koff is 4.83e-05 s⁻¹ and the kon was found to be 208000 M⁻¹ s⁻¹.
The matching figures for B2: 1170 pM, 0.000109 s⁻¹ and 93200 M⁻¹ s⁻¹.
Taken in the same sequence, the figures for B3 were 250 pM, 5.81e-05 s⁻¹ and 232000 M⁻¹ s⁻¹.
As for B4, the Kd stood at 7610 pM, the koff is 0.00074 s⁻¹ and the association rate constant (kon) was 97200 M⁻¹ s⁻¹.
On to B5, for which the Kd was determined as 836 pM, the koff was 7.81e-05 s⁻¹ and the on-rate (kon) is 93400 M⁻¹ s⁻¹.
On to B6, for which the Kd was determined as 10200 pM, the koff amounted to 0.00188 s⁻¹ and the kon stood at 184000 M⁻¹ s⁻¹.
Taken in the same sequence, the figures for B7 were 178 pM, 6.76e-05 s⁻¹ and 381000 M⁻¹ s⁻¹.
Taken in the same sequence, the figures for B8 were 310 pM, 5.44e-05 s⁻¹ and 175000 M⁻¹ s⁻¹.
The matching figures for B9: 961 pM, 8.79e-05 s⁻¹ and 91400 M⁻¹ s⁻¹.
With B10, the Kd came out at 335 pM, the off-rate constant (koff) came out at 5.29e-05 s⁻¹ and the kon was found to be 158000 M⁻¹ s⁻¹.
Taken in the same sequence, the figures for B11 were 352 pM, 6.64e-05 s⁻¹ and 189000 M⁻¹ s⁻¹.
Taken in the same sequence, the figures for B12 were 269 pM, 5.3e-05 s⁻¹ and 197000 M⁻¹ s⁻¹.
With B13, the dissociation constant (Kd) came out at 188 pM, the koff worked out at 5.52e-05 s⁻¹ and the kon worked out at 294000 M⁻¹ s⁻¹.
In the case of B14, the Kd is 13100 pM, the off-rate constant (koff) turned out to be 0.00143 s⁻¹ and the kon turned out to be 109000 M⁻¹ s⁻¹.
Consider B15, for which the dissociation constant Kd turned out to be 1010 pM, the dissociation rate constant (koff) amounted to 0.000103 s⁻¹ and the kon turned out to be 102000 M⁻¹ s⁻¹.
Taken in the same sequence, the figures for B16 were 296 pM, 5.14e-05 s⁻¹ and 174000 M⁻¹ s⁻¹.
The matching figures for B17: 1110 pM, 0.000153 s⁻¹ and 138000 M⁻¹ s⁻¹.
Turning to B18, the Kd stood at 967 pM, the koff came out at 8.4e-05 s⁻¹ and the kon amounted to 86900 M⁻¹ s⁻¹.
Taken in the same sequence, the figures for B19 were 325 pM, 5.59e-05 s⁻¹ and 172000 M⁻¹ s⁻¹.
The matching figures for B20: 267 pM, 4.77e-05 s⁻¹ and 179000 M⁻¹ s⁻¹.
For B21, the Kd came out at 376 pM, the koff stood at 6.53e-05 s⁻¹ and the kon was 174000 M⁻¹ s⁻¹.
